In publication PMC13337110, “Pericentrosomal Redistribution of the Endoplasmic Reticulum Ensures Organelle Symmetric Inheritance and Mitotic Progression” (Advanced Science, 2026):

Target: T1, 2×Strep-HA-RTN4B (human, UniProt Q9NQC3-2 1-373, when from mitotic cells: mitotic phosphorylation sites S15, S107, S111, S121, S129, S152)
T1 construct: Reticulon 4, isoform RTN4B, human; cDNA GenBank NM_153828.3 amplified from a U2OS cDNA library; N-terminal cytoplasmic region 1-185 and C-terminal RHD; Tag ends read from the printed construct name; also called Reticulon 4; 2×Strep-HA-RTN4B wild-type (WT); source: HeLa, stably expressed; not shown: 2×Strep, N-terminal, kept; HA, N-terminal, kept
T1 sequence (looked up): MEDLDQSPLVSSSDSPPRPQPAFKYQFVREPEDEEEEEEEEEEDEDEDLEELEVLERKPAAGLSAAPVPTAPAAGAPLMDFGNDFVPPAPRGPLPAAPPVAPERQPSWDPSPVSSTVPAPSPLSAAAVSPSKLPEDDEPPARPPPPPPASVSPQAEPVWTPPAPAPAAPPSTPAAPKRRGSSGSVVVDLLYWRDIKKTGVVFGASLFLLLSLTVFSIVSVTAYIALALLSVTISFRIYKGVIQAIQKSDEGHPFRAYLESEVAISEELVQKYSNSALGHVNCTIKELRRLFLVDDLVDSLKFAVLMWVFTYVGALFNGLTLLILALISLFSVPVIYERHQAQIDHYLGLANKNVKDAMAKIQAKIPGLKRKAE
Assay: pull-down; in vitro binding: 2×Strep-HA-RTN4B on Strep-Tactin XT beads incubated with purified GST-Rab11A, 2 h at 4°C; eluted with Strep-Tactin XT elution buffer; Western blot and Coomassie
Conditions: both partners purified

B1: GST-Rab11A (natural protein, human, UniProt P62491-1 1-216, looked up)
chain: MGTRDDEYDYLFKVVLIGDSGVGKSNLLSRFTRNEFNLESKSTIGVEFATRSIQVDGKTIKAQIWDTAGQERYRAITSAYYRGAVGALLVYDIAKHLTYENVERWLKELRDHADSNIVIMLVGNKSDLRHLRAVPTDEARAFAEKNGLSFIETSALDSTNVEAAFQTILTEIYRIVSQKQMSDRRENDMSPSNNVVPIHVPPTTENKPKVQCCQNI
notes: Rab11A, human; cDNA GenBank NM_004663.5 in pGEX-6P-1; also called Recombinant Rab11A; GST-tagged Rab11A; source: E. coli Rosetta (DE3), purified (Glutathione Sepharose 4B; eluted with reduced glutathione or kept on beads); not shown: GST, N-terminal, kept
B1: binds.
